Assay results published in US6682898B2, “High-throughput screening assays for modulators of STAT4 activity” (Tularik Inc., priority 1998, dated 2004).
Non-standard residues stand in square brackets, D forms with d. Residues, ends and D or L forms follow the SMILES beside them. No end group written: not given here. pY = N[C@@H](Cc1ccc(OP(=O)(O)O)cc1)C(=O)O

T1: STAT6 (UniProt P42226 1-847, limits assumed)
T1 construct: also called STAT6 polypeptide
T1 sequence (looked up): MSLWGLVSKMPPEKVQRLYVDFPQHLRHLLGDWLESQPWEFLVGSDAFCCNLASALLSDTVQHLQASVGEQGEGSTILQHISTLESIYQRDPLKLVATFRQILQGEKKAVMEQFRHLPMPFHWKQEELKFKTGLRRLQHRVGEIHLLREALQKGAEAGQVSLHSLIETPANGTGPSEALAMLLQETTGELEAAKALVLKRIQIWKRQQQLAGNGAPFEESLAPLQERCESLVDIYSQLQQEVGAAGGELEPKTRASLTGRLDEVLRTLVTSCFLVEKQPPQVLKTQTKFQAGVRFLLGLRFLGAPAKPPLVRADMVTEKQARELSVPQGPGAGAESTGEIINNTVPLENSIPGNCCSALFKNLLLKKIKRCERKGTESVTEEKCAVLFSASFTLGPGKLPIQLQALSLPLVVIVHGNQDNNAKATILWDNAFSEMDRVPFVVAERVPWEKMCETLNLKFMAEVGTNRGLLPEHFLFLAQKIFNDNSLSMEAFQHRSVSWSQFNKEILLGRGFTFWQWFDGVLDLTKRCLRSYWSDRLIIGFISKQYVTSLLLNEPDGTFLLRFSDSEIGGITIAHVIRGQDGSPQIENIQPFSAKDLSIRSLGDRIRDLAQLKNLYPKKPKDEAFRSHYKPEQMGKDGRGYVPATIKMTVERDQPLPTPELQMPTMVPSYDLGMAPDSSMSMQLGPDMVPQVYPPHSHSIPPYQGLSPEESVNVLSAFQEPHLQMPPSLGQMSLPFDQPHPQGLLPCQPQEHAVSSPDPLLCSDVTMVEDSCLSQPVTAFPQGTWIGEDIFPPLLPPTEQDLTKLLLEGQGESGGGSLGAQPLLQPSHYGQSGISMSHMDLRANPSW

T2: STAT6 (Homo sapiens, UniProt P42226)
T2 sequence (P42226 1-847): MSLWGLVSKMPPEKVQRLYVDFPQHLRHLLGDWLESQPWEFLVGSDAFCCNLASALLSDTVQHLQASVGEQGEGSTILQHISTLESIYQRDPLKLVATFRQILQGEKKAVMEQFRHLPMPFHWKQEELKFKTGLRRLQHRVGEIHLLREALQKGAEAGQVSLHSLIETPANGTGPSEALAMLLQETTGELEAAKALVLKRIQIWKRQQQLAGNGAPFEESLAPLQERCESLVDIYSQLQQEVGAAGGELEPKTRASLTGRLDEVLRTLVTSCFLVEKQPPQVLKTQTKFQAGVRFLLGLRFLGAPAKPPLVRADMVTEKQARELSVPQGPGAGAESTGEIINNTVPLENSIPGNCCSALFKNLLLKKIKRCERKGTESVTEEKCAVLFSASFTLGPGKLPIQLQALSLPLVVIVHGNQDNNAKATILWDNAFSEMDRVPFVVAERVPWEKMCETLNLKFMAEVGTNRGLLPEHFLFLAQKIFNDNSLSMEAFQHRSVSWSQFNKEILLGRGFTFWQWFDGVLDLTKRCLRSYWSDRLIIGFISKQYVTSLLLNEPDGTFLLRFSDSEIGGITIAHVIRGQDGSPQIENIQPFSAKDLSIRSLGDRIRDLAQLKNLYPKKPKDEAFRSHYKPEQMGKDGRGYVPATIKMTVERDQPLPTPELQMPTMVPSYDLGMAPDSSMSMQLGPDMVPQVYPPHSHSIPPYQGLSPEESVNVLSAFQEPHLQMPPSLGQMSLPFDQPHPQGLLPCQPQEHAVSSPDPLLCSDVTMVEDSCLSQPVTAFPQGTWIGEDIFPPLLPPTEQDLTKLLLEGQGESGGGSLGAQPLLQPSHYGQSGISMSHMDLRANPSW

T3: STAT4 (UniProt Q14765 1-748, limits assumed)
T3 construct: also called STAT4 polypeptide
T3 sequence (looked up): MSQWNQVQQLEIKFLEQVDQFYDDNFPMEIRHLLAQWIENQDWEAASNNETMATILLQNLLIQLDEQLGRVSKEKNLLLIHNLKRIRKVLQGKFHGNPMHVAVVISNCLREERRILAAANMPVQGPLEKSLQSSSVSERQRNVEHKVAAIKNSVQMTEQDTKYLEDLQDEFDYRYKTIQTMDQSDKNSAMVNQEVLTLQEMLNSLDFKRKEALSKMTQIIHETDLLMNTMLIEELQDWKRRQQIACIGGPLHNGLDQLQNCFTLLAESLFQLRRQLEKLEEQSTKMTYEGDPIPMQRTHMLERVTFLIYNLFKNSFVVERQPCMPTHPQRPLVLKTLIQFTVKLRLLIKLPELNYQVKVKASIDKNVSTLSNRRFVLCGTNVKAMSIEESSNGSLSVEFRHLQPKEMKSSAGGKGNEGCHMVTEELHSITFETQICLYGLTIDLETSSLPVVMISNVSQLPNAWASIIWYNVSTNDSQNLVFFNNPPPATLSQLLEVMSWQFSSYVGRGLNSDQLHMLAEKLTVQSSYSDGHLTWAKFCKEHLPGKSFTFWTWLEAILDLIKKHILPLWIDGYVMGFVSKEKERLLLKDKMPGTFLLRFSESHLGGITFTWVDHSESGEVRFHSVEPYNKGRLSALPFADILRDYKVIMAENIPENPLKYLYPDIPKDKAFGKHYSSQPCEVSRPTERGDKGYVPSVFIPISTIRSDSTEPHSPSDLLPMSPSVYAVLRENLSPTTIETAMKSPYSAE

B1: SHEGY^PLPSNID (IL-12 receptor) (peptide)
peptide: SHEG[pY]LPSNID
notes: Native IL-12 receptor-derived phosphopeptide; also called IL-12 receptor peptide
B2: SHEGY^PLPHNID (peptide)
peptide: SHEG[pY]LPHNID
B3: SHEGY^PLPNNID (peptide)
peptide: SHEG[pY]LPNNID
B4: SHEGY^PLPQNID (peptide)
peptide: SHEG[pY]LPQNID
B5: SHEGY^PLPWNID (peptide)
peptide: SHEG[pY]LPWNID

Target: T1, STAT6
Test: binding affinity of the phosphorylated receptor peptide for STAT6; method not stated at the table (paragraph 32 speaks of IC50)

Going from Ac-Y^PKPF-NH2 (peptide) to Ac-Y^PVPW-NH2 (peptide), the BINDING AFFINITY falls from 22 µM to 1.2 µM (18-fold).

For Ac-Y^PVPWQ-NH2 (peptide), the BINDING AFFINITY was 1.5 µM.

Target: T2, STAT6
Test: STAT6 binding to phosphotyrosine receptor peptides (IC50 / binding affinity)

First: CC(=O)N[C@@H](Cc1ccc(OP(=O)(O)O)cc1)C(=O)N[C@@H](CCCCN)C(=O)N1CCC[C@H]1C(=O)N[C@@H](Cc1ccccc1)C(N)=O [Ac-Y^PKPF-NH2, reference compound] (HELM PEPTIDE1{[ac].[O=C([C@H](Cc1ccc(OP(=O)(O)O)cc1)N[*:1])[*:2]].K.P.F.[am]}$$$$V2.0)
Second: CC(=O)N[C@@H](Cc1ccc(OP(=O)(O)O)cc1)C(=O)N[C@H](C(=O)N1CCC[C@H]1C(=O)N[C@@H](Cc1c[nH]c2ccccc12)C(N)=O)C(C)C [Ac-Y^PVPW-NH2] (HELM PEPTIDE1{[ac].[O=C([C@H](Cc1ccc(OP(=O)(O)O)cc1)N[*:1])[*:2]].V.P.W.[am]}$$$$V2.0)
The IC50 of the first is 18-fold higher: 22000 nM for the first, 1200 nM for the second.

Compared with `CC(=O)N[C@@H](Cc1ccc(OP(=O)(O)O)cc1)C(=O)N[C@H](C(=O)N1CCC[C@H]1C(=O)N[C@@H](Cc1c[nH]c2ccccc12)C(=O)N[C@@H](CCC(N)=O)C(N)=O)C(C)C` [Ac-Y^PVPWQ-NH2] (HELM PEPTIDE1{[ac].[O=C([C@H](Cc1ccc(OP(=O)(O)O)cc1)N[*:1])[*:2]].V.P.W.Q.[am]}$$$$V2.0), `CC(C)C[C@H](NC(=O)[C@@H](NC(=O)[C@H](Cc1c[nH]cn1)NC(=O)[C@@H]1CCCN1C(=O)[C@H](CCCCN)NC(=O)[C@H](CC(=O)O)NC(=O)[C@H](Cc1ccc(OP(=O)(O)O)cc1)NC(=O)CNC(=O)[C@H](Cc1ccccc1)NC(=O)[C@@H](N)CO)C(C)C)C(=O)O` [SFGY*DKPHVL, reference compound] (HELM PEPTIDE1{S.F.G.[O=C([C@H](Cc1ccc(OP(=O)(O)O)cc1)N[*:1])[*:2]].D.K.P.H.V.L}$$$$V2.0) is higher in IC50: 1500 nM for the first, over 100000 nM for the second. The first is the more potent here.

Target: T3, STAT4
Test: binding affinity of the phosphorylated receptor peptide for STAT4; method not stated at the table (paragraph 32 speaks of IC50)

Compared with B1, B2 is 4.1-fold lower in “BINDING AFFINITY” value: 2.9 µM for the first, 0.7 µM for the second.

B3 and B4 are within 1.5-fold of each other in “BINDING AFFINITY” value: 0.51 µM for the first, 0.39 µM for the second.

For B5, the “BINDING AFFINITY” value was 0.93 µM.
